Patent publication US20220298223A1 (KING S COLLEGE LONDON, published 2022)

T1: human CD19 expressed on LO68 tumor cells (human, UniProt P15391 20-556)
T1 construct: whole, on cells; also called CD19+ LO68 tumor cells; CD19-engineered LO68 tumor cells
T1 sequence (looked up): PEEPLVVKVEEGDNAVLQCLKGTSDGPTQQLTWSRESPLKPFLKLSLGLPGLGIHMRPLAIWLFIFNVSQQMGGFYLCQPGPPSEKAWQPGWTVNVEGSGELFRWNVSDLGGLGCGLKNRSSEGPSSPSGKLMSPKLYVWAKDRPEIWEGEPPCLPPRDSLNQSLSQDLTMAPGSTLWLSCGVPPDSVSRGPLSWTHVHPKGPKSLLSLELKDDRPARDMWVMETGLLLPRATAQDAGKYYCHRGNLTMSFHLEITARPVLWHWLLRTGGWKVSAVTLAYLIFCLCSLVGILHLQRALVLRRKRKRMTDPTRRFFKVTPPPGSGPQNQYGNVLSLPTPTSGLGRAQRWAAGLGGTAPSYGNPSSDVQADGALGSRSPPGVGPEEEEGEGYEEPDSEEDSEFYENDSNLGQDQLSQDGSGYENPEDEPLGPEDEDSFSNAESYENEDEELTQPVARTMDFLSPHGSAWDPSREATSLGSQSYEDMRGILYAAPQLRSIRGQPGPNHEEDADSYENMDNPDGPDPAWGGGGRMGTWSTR

B1: G02 second generation CAR (F-2 with the second glycine of FMC63 VH CDR3 substituted by alanine), expressed on human T cells (other)
chain: DIQMTQTTSSLSASLGDRVTISCRASQDISKYLNWYQQKPDGTVKLLIYHTSRLHSGVPSRFSGSGSGTDYSLTISNLEQEDIATYFCQQGNTLPYTFGGGTKLEITGGGGSGGGGSGGGGSEVKLQESGPGLVAPSQSLSVTCTVSGVSLPDYGVSWIRQPPRKGLEWLGVIWGSETTYYNSALKSRLTIIKDNSKSQVFLKMNSLQTDDTAIYYCAKHYYYGASYAMDYWGQGTSVTVSSAAAIEVEQKLISEEDLLDNEKSNGTIIHVKGKHLCPSPLFPGPSKPFWVLVVVGGVLACYSLLVTVAFIIFWVRSKRSRLLHSDYMNMTPRRPGPTRKHYQPYAPPRDFAAYRSRVKFSRSADAPAYQQGQNQLYNELNLGRREEYDVLDKRRGRDPEMGGKPRRKNPQEGLYNELQKDKMAEAYSEIGMKGERRRGKGHDGLYQGLSTATKDTYDALHMQALPPR
notes: CAR on transduced human T cells; also called FMC63(G02)
B2: Y04 second generation CAR (F-2 with the fourth tyrosine of FMC63 VH CDR3 substituted by alanine), expressed on human T cells (other)
chain: DIQMTQTTSSLSASLGDRVTISCRASQDISKYLNWYQQKPDGTVKLLIYHTSRLHSGVPSRFSGSGSGTDYSLTISNLEQEDIATYFCQQGNTLPYTFGGGTKLEITGGGGSGGGGSGGGGSEVKLQESGPGLVAPSQSLSVTCTVSGVSLPDYGVSWIRQPPRKGLEWLGVIWGSETTYYNSALKSRLTIIKDNSKSQVFLKMNSLQTDDTAIYYCAKHYYYGGSAAMDYWGQGTSVTVSSAAAIEVEQKLISEEDLLDNEKSNGTIIHVKGKHLCPSPLFPGPSKPFWVLVVVGGVLACYSLLVTVAFIIFWVRSKRSRLLHSDYMNMTPRRPGPTRKHYQPYAPPRDFAAYRSRVKFSRSADAPAYQQGQNQLYNELNLGRREEYDVLDKRRGRDPEMGGKPRRKNPQEGLYNELQKDKMAEAYSEIGMKGERRRGKGHDGLYQGLSTATKDTYDALHMQALPPR
notes: CAR on transduced human T cells; also called FMC63(Y04)
B3: Y03 second generation CAR (F-2 with the third tyrosine of FMC63 VH CDR3 substituted by alanine), expressed on human T cells (other)
chain: DIQMTQTTSSLSASLGDRVTISCRASQDISKYLNWYQQKPDGTVKLLIYHTSRLHSGVPSRFSGSGSGTDYSLTISNLEQEDIATYFCQQGNTLPYTFGGGTKLEITGGGGSGGGGSGGGGSEVKLQESGPGLVAPSQSLSVTCTVSGVSLPDYGVSWIRQPPRKGLEWLGVIWGSETTYYNSALKSRLTIIKDNSKSQVFLKMNSLQTDDTAIYYCAKHYYAGGSYAMDYWGQGTSVTVSSAAAIEVEQKLISEEDLLDNEKSNGTIIHVKGKHLCPSPLFPGPSKPFWVLVVVGGVLACYSLLVTVAFIIFWVRSKRSRLLHSDYMNMTPRRPGPTRKHYQPYAPPRDFAAYRSRVKFSRSADAPAYQQGQNQLYNELNLGRREEYDVLDKRRGRDPEMGGKPRRKNPQEGLYNELQKDKMAEAYSEIGMKGERRRGKGHDGLYQGLSTATKDTYDALHMQALPPR
notes: CAR on transduced human T cells; also called FMC63(Y03)
B4: Y01 second generation CAR (F-2 with the first tyrosine of FMC63 VH CDR3 substituted by alanine), expressed on human T cells (other)
chain: DIQMTQTTSSLSASLGDRVTISCRASQDISKYLNWYQQKPDGTVKLLIYHTSRLHSGVPSRFSGSGSGTDYSLTISNLEQEDIATYFCQQGNTLPYTFGGGTKLEITGGGGSGGGGSGGGGSEVKLQESGPGLVAPSQSLSVTCTVSGVSLPDYGVSWIRQPPRKGLEWLGVIWGSETTYYNSALKSRLTIIKDNSKSQVFLKMNSLQTDDTAIYYCAKHAYYGGSYAMDYWGQGTSVTVSSAAAIEVEQKLISEEDLLDNEKSNGTIIHVKGKHLCPSPLFPGPSKPFWVLVVVGGVLACYSLLVTVAFIIFWVRSKRSRLLHSDYMNMTPRRPGPTRKHYQPYAPPRDFAAYRSRVKFSRSADAPAYQQGQNQLYNELNLGRREEYDVLDKRRGRDPEMGGKPRRKNPQEGLYNELQKDKMAEAYSEIGMKGERRRGKGHDGLYQGLSTATKDTYDALHMQALPPR
notes: CAR on transduced human T cells; also called FMC63(Y01)

What follows are binders tested against T1, human CD19 expressed on LO68 tumor cells (assay: z-Movi microfluidic chip, CAR T cells on a monolayer of CD19+ LO68 tumor cells, force ramp, percent bound T cells).
Protocol: CD19-engineered LO68 tumor cells were seeded in a z-Movi microfluidic chip and cultured for 16 hours. The next day, flow sorted CAR-T cells were serially flowed in the chips and incubated with the target cells for 5 minutes prior to initializing a 3-minute linear force ramp. Cell detachment was determined using post-experiment using image analysis techniques.
Increasing fluidic force was applied and the percentage of bound T-cells was determined (median, n=3). […] Data are presented as median rForce which is the relative force required to elicit cell detachment, calibrated to […] polystyrene beads. Since data were not normally distributed, they are presented as median rForce which is the relative force required to elicit cell detachment and calibrated to […] polystyrene beads. […] Data shown are mean±standard error (n=11 runs, 3 independent donors). […] For clarity, a single representative run for one healthy donor is plotted in which each dot represents a single cell.

Binding result, binds:
B1
B2
B3
B4
